Data: article doi:10.1101/2023.10.23.563594 (bioRxiv, 2023)

B1: RING1 and YY1-binding protein (RYBP), full-length wild type, co-expressed in the vPRC1.4 complex (natural protein)
chain: MTMGDKKSPTRPKRQAKPAADEGFWDCSVCTFRNSAEAFKCSICDVRKGTSTRKPRINSQLVAQQVAQQYATPPPPKKEKKEKVEKQDKEKPEKDKEISPSVTKKNTNKKTKPKSDILKDPPSEANSIQSANATTKTSETNHTSRPRLKNVDRSTAQQLAVTVGNVTVIITDFKEKTRSSSTSSSTVTSSAGSEQQNQSSSGSESTDKGSSRSSTPKGDMSAVNDESF
B5: Polycomb group ring-finger subunit PCGF4, full-length, co-expressed in the vPRC1.4 complex (natural protein)
chain: MHRTTRIKITELNPHLMCVLCGGYFIDATTIIECLHSFCKTCIVRYLETSKYCPICDVQVHKTRPLLNIRSDKTLQDIVYKLVPGLFKNEMKRRRDFYAAHPSADAANGSNEDRGEVADEDKRIITDDEIISLSIEFFDQNRLDRKVNKDKEKSKEEVNDKRYLRCPAAMTVMHLRKFLRSKMDIPNTFQIDVMYEEEPLKDYYTLMDIAYIYTWRRNGPLPLKYRVRPTCKRMKISHQRDGLTNAGELESDSGSDKANSPAGGIPSTSSCLPSPSTPVQSPHPQFPHISSTMNGTSNSPSGNHQSSFANRPRKSSVNGSSATSSG
B6: E3 ubiquitin ligase subunit RING1B, full-length, co-expressed in the vPRC1.4 complex (natural protein)
chain: MSQAVQTNGTQPLSKTWELSLYELQRTPQEAITDGLEIVVSPRSLHSELMCPICLDMLKNTMTTKECLHRFCADCIITALRSGNKECPTCRKKLVSKRSLRPDPNFDALISKIYPSRDEYEAHQERVLARINKHNNQQALSHSIEEGLKIQAMNRLQRGKKQQIENGSGAEDNGDSSHCSNASTHSNQEAGPSNKRTKTSDDSGLELDNNNAAMAIDPVMDGASEIELVFRPHPTLMEKDDSAQTRYIKTSGNATVDHLSKYLAVRLALEELRSKGESNQMNLDTASEKQYTIYIATASGQFTVLNGSFSLELVSEKYWKVNKPMELYYAPTKEHK

Experiments:
[1] = biological target: B5; assay: cross-linking
[2] = biological target: B6; assay: cross-linking
[3] = biological target: B5; assay: pull-down
[4] = biological target: B6; assay: pull-down
[5] = biological target: T1, full-length unlabelled RING1B-PCGF4 catalytic dimer (human, UniProt Q99496-1;P35226); assay: pull-down
T1 sequence 1: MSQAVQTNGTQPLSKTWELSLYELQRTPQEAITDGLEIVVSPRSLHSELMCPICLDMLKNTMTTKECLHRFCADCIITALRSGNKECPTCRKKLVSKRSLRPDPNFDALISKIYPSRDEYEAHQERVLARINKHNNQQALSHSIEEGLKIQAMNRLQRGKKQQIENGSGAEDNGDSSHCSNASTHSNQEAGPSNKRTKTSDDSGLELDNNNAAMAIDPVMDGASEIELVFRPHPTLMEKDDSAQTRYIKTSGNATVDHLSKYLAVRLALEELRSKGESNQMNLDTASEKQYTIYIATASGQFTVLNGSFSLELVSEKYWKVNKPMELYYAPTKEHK
T1 sequence 2: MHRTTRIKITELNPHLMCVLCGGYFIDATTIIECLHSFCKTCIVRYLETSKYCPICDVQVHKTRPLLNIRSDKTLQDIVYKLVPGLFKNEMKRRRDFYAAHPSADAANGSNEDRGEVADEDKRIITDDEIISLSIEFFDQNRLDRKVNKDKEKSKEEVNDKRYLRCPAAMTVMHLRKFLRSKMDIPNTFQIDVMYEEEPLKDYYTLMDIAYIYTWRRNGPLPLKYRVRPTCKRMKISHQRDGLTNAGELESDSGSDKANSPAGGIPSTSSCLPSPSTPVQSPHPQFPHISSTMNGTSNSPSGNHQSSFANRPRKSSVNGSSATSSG

[6] = biological target: B1; assay: SEC-MALS
[7] = biological target: B6; assay: SEC-MALS

B1: binds [1]; binds [2].

B2: RYBP Q69K, co-expressed with RING1B and PCGF4 (natural protein)
chain: MTMGDKKSPTRPKRQAKPAADEGFWDCSVCTFRNSAEAFKCSICDVRKGTSTRKPRINSQLVAQQVAQKYATPPPPKKEKKEKVEKQDKEKPEKDKEISPSVTKKNTNKKTKPKSDILKDPPSEANSIQSANATTKTSETNHTSRPRLKNVDRSTAQQLAVTVGNVTVIITDFKEKTRSSSTSSSTVTSSAGSEQQNQSSSGSESTDKGSSRSSTPKGDMSAVNDESF
B2: binds [3]; binds [4].

B3: RYBP A63T, co-expressed with RING1B and PCGF4 (natural protein)
chain: MTMGDKKSPTRPKRQAKPAADEGFWDCSVCTFRNSAEAFKCSICDVRKGTSTRKPRINSQLVTQQVAQQYATPPPPKKEKKEKVEKQDKEKPEKDKEISPSVTKKNTNKKTKPKSDILKDPPSEANSIQSANATTKTSETNHTSRPRLKNVDRSTAQQLAVTVGNVTVIITDFKEKTRSSSTSSSTVTSSAGSEQQNQSSSGSESTDKGSSRSSTPKGDMSAVNDESF
B3: binds [3]; binds [4].

B4: RYBP full-length, 15N- or 13C/15N-labelled, from E. coli (natural protein)
chain: MTMGDKKSPTRPKRQAKPAADEGFWDCSVCTFRNSAEAFKCSICDVRKGTSTRKPRINSQLVAQQVAQQYATPPPPKKEKKEKVEKQDKEKPEKDKEISPSVTKKNTNKKTKPKSDILKDPPSEANSIQSANATTKTSETNHTSRPRLKNVDRSTAQQLAVTVGNVTVIITDFKEKTRSSSTSSSTVTSSAGSEQQNQSSSGSESTDKGSSRSSTPKGDMSAVNDESF
modifications: uniform 15N or 13C/15N isotope labelling
B4: binds [5].

In the case of B5, the “stoichiometry N” value [6] is reported as 1 and the “stoichiometry N” value [7] is reported as 1.

With B6 the “stoichiometry N” value [6] was 1.
